According to patent publication US20220332804A1 (CSL INNOVATION, published 2022):

Assays:
Assay in all cases: SPR; KD relative to WT C2;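 further: biacore SPR at 37 °C, anti-C2 mAbs captured on an anti-human IgG chip, alanine or serine C2 surface mutants tested, KD from 1:1 fit compared with wild-type C2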
human C2 L279A = target: T1, human C2 L279A (human, UniProt P06681 21-752)
T1 sequence: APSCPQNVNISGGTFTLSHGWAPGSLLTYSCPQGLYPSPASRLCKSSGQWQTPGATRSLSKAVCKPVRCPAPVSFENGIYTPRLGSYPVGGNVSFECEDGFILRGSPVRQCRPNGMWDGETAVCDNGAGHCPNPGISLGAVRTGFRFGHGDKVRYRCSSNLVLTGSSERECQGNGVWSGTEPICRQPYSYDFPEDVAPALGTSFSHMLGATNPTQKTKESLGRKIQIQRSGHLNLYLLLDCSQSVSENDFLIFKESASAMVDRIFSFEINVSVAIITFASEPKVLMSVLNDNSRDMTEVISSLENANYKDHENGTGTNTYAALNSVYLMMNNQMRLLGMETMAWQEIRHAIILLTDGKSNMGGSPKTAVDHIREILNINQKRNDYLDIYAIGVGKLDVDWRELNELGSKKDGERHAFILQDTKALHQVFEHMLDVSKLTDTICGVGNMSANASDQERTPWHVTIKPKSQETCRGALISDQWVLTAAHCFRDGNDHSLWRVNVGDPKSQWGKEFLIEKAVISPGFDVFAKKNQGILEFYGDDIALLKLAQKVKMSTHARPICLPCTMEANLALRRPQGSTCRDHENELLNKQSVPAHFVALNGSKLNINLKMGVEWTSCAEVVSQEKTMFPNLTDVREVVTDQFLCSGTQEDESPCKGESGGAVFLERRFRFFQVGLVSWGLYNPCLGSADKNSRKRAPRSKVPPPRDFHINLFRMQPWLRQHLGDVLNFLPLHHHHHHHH

human C2 D419A = target: T2, human C2 D419A (human, UniProt P06681 21-752)
T2 sequence: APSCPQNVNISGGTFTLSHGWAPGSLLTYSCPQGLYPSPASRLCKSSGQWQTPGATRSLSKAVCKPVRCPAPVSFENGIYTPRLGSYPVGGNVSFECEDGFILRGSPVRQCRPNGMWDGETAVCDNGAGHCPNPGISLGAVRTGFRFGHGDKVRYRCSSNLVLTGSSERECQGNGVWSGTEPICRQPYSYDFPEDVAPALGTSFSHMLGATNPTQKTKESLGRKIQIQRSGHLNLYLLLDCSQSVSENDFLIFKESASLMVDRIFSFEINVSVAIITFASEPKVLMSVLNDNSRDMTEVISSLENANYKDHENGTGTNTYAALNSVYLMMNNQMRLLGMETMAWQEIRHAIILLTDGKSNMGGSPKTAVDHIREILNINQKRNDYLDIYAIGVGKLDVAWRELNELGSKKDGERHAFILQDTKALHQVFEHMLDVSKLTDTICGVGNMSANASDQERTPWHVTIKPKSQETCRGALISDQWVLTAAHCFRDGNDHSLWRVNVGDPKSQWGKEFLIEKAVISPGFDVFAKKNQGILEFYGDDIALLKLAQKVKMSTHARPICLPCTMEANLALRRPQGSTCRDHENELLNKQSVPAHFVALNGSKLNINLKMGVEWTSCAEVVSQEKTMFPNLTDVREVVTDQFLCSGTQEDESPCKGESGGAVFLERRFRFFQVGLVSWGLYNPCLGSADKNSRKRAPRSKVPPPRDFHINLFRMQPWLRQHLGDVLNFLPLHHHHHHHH

human C2 R493A = target: T3, human C2 R493A (human, UniProt P06681 21-752)
T3 sequence: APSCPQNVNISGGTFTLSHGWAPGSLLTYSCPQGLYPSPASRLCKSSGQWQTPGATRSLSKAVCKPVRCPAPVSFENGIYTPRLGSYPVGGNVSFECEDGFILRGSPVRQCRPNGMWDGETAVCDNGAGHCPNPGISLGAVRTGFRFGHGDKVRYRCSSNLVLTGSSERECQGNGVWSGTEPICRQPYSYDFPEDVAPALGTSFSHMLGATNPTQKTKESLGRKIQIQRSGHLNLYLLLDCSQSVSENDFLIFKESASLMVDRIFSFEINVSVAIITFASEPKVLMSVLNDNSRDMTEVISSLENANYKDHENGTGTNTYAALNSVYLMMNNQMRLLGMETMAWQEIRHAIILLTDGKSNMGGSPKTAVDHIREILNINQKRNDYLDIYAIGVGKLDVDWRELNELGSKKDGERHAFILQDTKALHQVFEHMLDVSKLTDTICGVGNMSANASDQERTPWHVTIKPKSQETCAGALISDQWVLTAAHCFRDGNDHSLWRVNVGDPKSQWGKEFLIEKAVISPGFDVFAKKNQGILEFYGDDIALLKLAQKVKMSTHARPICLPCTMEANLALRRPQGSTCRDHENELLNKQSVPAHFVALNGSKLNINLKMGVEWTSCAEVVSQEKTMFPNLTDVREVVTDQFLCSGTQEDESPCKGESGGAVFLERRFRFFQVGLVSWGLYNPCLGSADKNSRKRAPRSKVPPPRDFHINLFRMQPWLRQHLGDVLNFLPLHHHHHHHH

human C2 N327A = target: T4, human C2 N327A (human, UniProt P06681 21-752)
T4 sequence: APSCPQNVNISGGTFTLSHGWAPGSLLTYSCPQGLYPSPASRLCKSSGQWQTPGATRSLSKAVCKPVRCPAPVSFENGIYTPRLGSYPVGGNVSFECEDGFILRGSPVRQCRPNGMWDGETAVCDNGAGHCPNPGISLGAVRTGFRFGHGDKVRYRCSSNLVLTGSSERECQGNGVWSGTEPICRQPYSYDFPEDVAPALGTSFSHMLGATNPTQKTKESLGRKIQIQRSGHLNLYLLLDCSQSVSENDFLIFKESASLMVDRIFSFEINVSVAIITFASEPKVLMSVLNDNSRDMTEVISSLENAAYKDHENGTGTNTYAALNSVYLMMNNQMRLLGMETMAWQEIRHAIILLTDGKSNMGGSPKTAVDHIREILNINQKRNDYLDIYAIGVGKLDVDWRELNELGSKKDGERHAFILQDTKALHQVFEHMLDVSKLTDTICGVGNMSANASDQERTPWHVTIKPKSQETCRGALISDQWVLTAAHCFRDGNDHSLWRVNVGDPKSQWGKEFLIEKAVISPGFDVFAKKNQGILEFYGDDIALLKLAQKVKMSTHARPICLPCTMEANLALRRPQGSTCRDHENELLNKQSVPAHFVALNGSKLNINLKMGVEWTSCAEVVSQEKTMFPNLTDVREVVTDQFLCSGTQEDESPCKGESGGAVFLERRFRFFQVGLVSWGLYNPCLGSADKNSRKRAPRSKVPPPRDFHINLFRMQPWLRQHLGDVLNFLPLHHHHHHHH

B1: RF16-214 (antibody, V domains shown)
VH: EVQLLESGGGLVQPGGSLRLSCAASGFTFSWYQMMWVRQAPGKGLEWVSRIYPSGGGTAYADSVKGRFTISRDNSKNTLYLQMNSLRAEDTAVYYCARDAGYGDNWGQGTLVTVSS
VL: QSALTQPPSVSVSPGQTASITCSGDKLGEKYASWYQQKAGQSPVMVIYQDRKRPSGIPERFSGSNSGNTATLTISGTQAMDEADYYCQAWDTRAVVFGGGTKLTVLG
Human C2 L279A
  Fold diff: 8 fold
Human C2 D419A
  Fold diff: 2 fold
Human C2 R493A
  Fold diff: 1 fold
Human C2 N327A
  Fold diff: 7 fold
